# Laboratory results published in patent US20140234351A1 (IMMUNOCELLULAR THERAPEUTICS, published 2014).
# Target: T1, HLA-A*0201 molecules on TAP-deficient T2 cells (human)
# T1 construct: also called HLA-A2; T2 cells expressing HLA-A2
# Test: T2 cell binding assay, fluorescence index (MFI peptide - MFI untreated)/MFI untreated
row,Binder,MFI index
1,EIWTHSYKV (Synthetic peptide; also called FOLR1p191; FOLR1 p191) [FOLR1 191-199 HLA-A2 peptide],< 1
2,TLADFDPRV (Synthetic peptide; also called EphA2p883; EphA2 p883) [EphA2 883-891 HLA-A2 peptide],> 1.5

# Now from value to binder:
row,MFI index,Binder
1,> 1.5,WLPFGFILI (Synthetic peptide; also called IL-13Rα2p345; IL-13Rα2 p345) [IL-13Rα2 345-352 HLA-A2 peptide]
2,> 1.5,KVLEYVIKV (Synthetic peptide; also called MAGEA1p278; MAGE-A1 p278) [MAGE-A1 278-286 HLA-A2 peptide]
3,> 1.5,VLPLTVAEV (Synthetic peptide; also called mesothelinp531; mesothelin p531) [Mesothelin 531-539 HLA-A2 peptide]
